The record followed here is patent US20220273751A1, “GPCR HETEROMER INHIBITORS AND USES THEREOF” (GPCR THERAPEUTICS, INC., priority 2019, published 2022).

This assay concerns the target CXCR4 (C-X-C Motif Chemokine Receptor 4) (human) (UniProt P61073). Description: cell-based or functional assay.

Chain of CXCR4 (C-X-C Motif Chemokine Receptor 4) (human) (P61073 whole entry): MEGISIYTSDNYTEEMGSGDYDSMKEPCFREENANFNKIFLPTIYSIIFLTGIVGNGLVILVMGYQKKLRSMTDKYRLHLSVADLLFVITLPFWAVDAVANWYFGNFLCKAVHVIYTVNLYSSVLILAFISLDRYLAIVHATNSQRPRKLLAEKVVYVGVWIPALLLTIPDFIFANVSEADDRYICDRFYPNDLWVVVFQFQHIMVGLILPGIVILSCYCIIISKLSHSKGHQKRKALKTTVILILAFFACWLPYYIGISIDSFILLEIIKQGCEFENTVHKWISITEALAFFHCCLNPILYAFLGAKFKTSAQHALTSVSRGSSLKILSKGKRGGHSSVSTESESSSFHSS

For BKT140 (peptide), the IC50 of Ca2+ response, MDA-MB-231 cells expressing CXCR4 alone is 579 nM; the IC50 of Ca2+ response, MDA-MB-231 cells with CXCR4 + ADRB2, with Carvedilol 600 nM worked out at 1.94 nM; the IC50 of Ca2+ response, MDA-MB-231 cells with CXCR4 + ADRB2, without Carvedilol was 88.7 nM.
